Results reported in paper PMC9519043.

What was measured:
[1] = target: SARS-CoV-2 virus particle (S protein), native, patient saliva (SARS-CoV-2 (clinical isolates)) (UniProt P0DTC2); test: microfluidic affinity capture, RT-qPCR; conditions: 5' amino C12 linker and TEG spacer 9; 3' inverted dT; SPR (BIAcore T200, […], pH not stated; chip capture from buffer or saliva at 20 ul/min
[2] = tested on: HRSV virus particle (Human respiratory syncytial virus strain A2 (ATCC VR-1540)); test: microfluidic affinity capture, RT-qPCR; conditions: SPR (BIAcore T200, […], pH not stated

Row | Sequence | binding signal [1] | binding signal [2]
1 | CAGCACCGACCTTGTGCTTTGGGAGTGCTGGTCCAAGGGCGTTAATGGACA [51-nt SARS-CoV-2 aptamer, chip form] | 94.7 % recovery | 
2 | TAGGGAAGAGAAGGACATATGATAGTGCGGTGAGCCGTCGGACATACAAATACTTGACTAGTACATGACCACTTGA [HRSV aptamer (Percze et al.), chip form] |  | 74.2 % recovery
